According to PMC10350030 (bioRxiv, 2023):

Molecular target: biotin-Aβ42 (UniProt P05067 672-713, biotin (site not stated))
Test: single-molecule TIRF microscopy

biotin-Aβ42, sequence (P05067 672-713): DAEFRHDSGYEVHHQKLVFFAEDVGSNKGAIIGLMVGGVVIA

B1: Cy3-labeled ceruloplasmin (enzyme, human, UniProt P00450 20-1065, looked up)
chain: KEKHYYIGIIETTWDYASDHGEKKLISVDTEHSNIYLQNGPDRIGRLYKKALYLQYTDETFRTTIEKPVWLGFLGPIIKAETGDKVYVHLKNLASRPYTFHSHGITYYKEHEGAIYPDNTTDFQRADDKVYPGEQYTYMLLATEEQSPGEGDGNCVTRIYHSHIDAPKDIASGLIGPLIICKKDSLDKEKEKHIDREFVVMFSVVDENFSWYLEDNIKTYCSEPEKVDKDNEDFQESNRMYSVNGYTFGSLPGLSMCAEDRVKWYLFGMGNEVDVHAAFFHGQALTNKNYRIDTINLFPATLFDAYMVAQNPGEWMLSCQNLNHLKAGLQAFFQVQECNKSSSKDNIRGKHVRHYYIAAEEIIWNYAPSGIDIFTKENLTAPGSDSAVFFEQGTTRIGGSYKKLVYREYTDASFTNRKERGPEEEHLGILGPVIWAEVGDTIRVTFHNKGAYPLSIEPIGVRFNKNNEGTYYSPNYNPQSRSVPPSASHVAPTETFTYEWTVPKEVGPTNADPVCLAKMYYSAVEPTKDIFTGLIGPMKICKKGSLHANGRQKDVDKEFYLFPTVFDENESLLLEDNIRMFTTAPDQVDKEDEDFQESNKMHSMNGFMYGNQPGLTMCKGDSVVWYLFSAGNEADVHGIYFSGNTYLWRGERRDTANLFPQTSLTLHMWPDTEGTFNVECLTTDHYTGGMKQKYTVNQCRRQSEDSTFYLGERTYYIAAVEVEWDYSPQREWEKELHHLQEQNVSNAFLDKGEFYIGSKYKKVVYRQYTDSTFRVPVERKAEEEHLGILGPQLHADVGDKVKIIFKNMATRPYSIHAHGVQTESSTVTPTLPGETLTYVWKIPERSGAGTEDSACIPWAYYSTVDQVKDLYSGLIGPLIVCRRPYLKVFNPRRKLEFALLFLVFDENESWYLDDNIKTYSDHPEKVNKDDEEFIESNKMHAINGRMFGNLQGLTMHVGDEVNWYLMGMGNEIDLHTVHFHGHSFQYKHRGVYSSDVFDIFPGTYQTLEMFPRTPGIWLLHCHVTDHIHAGMETTYTVLQNEDTKSG
modifications: Cy3 label (site not stated)
half-lifetime of transient binding: ~14.6 s
